Results on 4 molecules are retold here after patent US20240279341A1 (Alector, published 2024).

Assay [1] deals with T1, human PDL1 (human, UniProt Q9NZQ7 19-290).
T1 construct: whole, on cells; Also used as the target for the monovalent anti-PDL1 antibody on M2c-differentiated human macrophages (endogenous PDL1); also called huPDL1; programmed death-ligand 1
In words: flow cytometry on CHO-huPDL1 OE cells, Dylight650-conjugated antibody. From the text: (§1) Human macrophages were differentiated from human monocytes for 7 days in the presence of human M-CSF, resulting in M2c-differentiated human macrophages. After 7 days, the differentiated human macrophages were harvested (by scraping), resuspended in PBS, and plated on 96-well plates for use. CHO cells overexpressing human MerTK (CHO-huMerTK OE), CHO cells overexpressing human PDL1 (CHO-huPDL1 OE), and M2c-differentiated human macrophages were stained with Dylight650-conjugated bispecific anti-MerTK:anti-PDL1 antibodies, or bivalent anti-MerTK antibodies for 30 min on ice. A range of antibody concentrations were used in these studies to obtain binding curves. All antibodies tested in these studies were IgG1 having Fc regions comprising LALAPS mutations. Cells were fixed and then acquired on a BD FACS Canto II cytometer. The mean fluorescence intensity (MFI) was calculated using FlowJo software and Kd value was calculated using Prism software.
Background: Flow cytometry measures light scatter and fluorescence of single cells or particles in a stream.

Assay [2] addresses T2, human MerTK overexpressed on CHO cells (human, UniProt Q12866 21-999).
T2 construct: also called CHO-huMerTK OE; CHO-human MerTK OE cells
T2 sequence: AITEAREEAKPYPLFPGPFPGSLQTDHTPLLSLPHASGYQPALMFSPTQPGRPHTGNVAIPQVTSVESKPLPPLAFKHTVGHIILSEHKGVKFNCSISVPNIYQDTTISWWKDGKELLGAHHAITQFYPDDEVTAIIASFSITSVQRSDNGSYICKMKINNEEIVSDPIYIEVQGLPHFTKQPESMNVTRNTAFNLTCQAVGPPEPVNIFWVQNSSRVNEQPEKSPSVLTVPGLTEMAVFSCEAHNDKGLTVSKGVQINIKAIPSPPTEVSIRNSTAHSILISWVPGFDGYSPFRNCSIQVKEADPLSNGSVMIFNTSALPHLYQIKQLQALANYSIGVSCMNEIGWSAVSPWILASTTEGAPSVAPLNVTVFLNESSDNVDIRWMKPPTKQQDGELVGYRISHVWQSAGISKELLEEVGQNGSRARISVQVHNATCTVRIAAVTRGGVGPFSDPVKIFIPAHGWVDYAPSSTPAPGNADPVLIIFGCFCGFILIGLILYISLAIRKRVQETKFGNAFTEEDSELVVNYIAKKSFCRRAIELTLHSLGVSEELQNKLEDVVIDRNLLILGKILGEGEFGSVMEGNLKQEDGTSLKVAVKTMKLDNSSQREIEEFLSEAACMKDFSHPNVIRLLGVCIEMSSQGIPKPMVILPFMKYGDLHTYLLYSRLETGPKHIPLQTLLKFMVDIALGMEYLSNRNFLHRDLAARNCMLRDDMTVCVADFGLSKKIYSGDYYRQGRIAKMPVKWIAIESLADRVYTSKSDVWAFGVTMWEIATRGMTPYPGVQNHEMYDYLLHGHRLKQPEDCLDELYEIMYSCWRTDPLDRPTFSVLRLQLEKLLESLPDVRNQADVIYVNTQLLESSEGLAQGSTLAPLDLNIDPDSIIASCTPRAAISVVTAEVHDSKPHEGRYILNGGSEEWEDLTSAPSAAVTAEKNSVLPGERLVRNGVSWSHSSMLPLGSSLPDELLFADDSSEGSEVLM
In words: flow cytometry on CHO-huMerTK OE cells.
Excerpt: as §1

The target in assay [3] is T3, human MerTK on M2c-differentiated human macrophages (human, UniProt Q12866 21-999).
T3 construct: Endogenous MerTK of primary human macrophages; also called M2c-huMacrophages
T3 sequence: T2 sequence
In words: flow cytometry on M2c-differentiated human macrophages.
Excerpt: as §1

The target in assay [4] is T1, human PDL1. In words: flow cytometry, Dylight650-conjugated antibody on CHO-huPDL1 OE cells, MFI. The method, then: (§2) To determine whether bispecific anti-MerTK:anti-PDL1 antibodies of the present disclosure bind to different cell types, the following experiments were performed. Cells used in these studies included CHO cells overexpressing human MerTK (CHO-human MerTK OE cells), CHO cells overexpressing human PDL1 (CHO-human PDL1 OE cells), and M2c-differentiated human macrophages.
as §1

For assay [5], the target named is T2, human MerTK overexpressed on CHO cells. In words: flow cytometry, Dylight650-conjugated antibody on CHO-huMerTK OE cells, MFI. As for the experimental part:
as §2, §1

T1 sequence (Q9NZQ7 19-290): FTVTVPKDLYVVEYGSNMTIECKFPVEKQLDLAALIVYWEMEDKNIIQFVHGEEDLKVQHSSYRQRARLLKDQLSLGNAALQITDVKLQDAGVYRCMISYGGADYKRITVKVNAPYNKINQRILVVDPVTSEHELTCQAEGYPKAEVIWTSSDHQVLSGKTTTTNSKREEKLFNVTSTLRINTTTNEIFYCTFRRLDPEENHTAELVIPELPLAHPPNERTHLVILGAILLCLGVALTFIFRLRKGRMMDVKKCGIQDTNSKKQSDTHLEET

B1: monovalent anti-MerTK antibody MTK-33.11 (antibody, V domains shown)
VH: QVQLVQSGAEVKKPGASVKVSCKASGYTFTSYWMHWVRQAPGQGLEWIGVIDPSDNYINYNQKFQGRVTMTRDTSTSTVYMELSSLRSEDTAVYYCAREAWTRGYFDYWGQGTLVTVSS
VL: DIQMTQSPSSLSASVGDRVTITCQASRSVRNTVAWYQQKPGKAPKLLIYYASNRYTGVPSRFSGSGSGTDFTFTISSLQPEDIATYYCQQDYRSPFTFGQGTKLEIK
B1: the binding result in the assay with human PDL1 [1] is recorded as “no binding”.

B2: bivalent anti-MerTK antibody MTK-33.11 (full IgG) (antibody, V domains shown)
VH: B1 VH
VL: DIQMTQSPSSLSASVGDRVTITCQASRSVRNTVAWYQQKPGKAPKLLIYYASNRYTGVPSRFSGSGSGTDFTFTISSLQPEDIATYYCQQDYRSPFTFGQGTKLEIKR
The EC50 (read off the curve) is the concentration that produces a half-maximal response. Read a high EC50 (read off the curve) as a need for much substance. Consider B2, for which the “fold higher affinity compared to its monovalent form (monovalent MTK-33.11)” value was ~10 fold in assay [2] and ~5 fold in assay [3]. Besides, the binding result with human PDL1 [4] is “no binding (tested: about 70 nM)”. Further, in assay [5], the “EC50 (read off the curve)” value was ~4 nM.

B3: monovalent anti-MerTK antibody MTK-16.2 (antibody, V domains shown)
VH: QVQLVQSGSELKKPGASVKVSCKASGYTFTNHGMNWVRQAPGQGLEWMGWINTYTGEPTYADDFKGRFVFSLDTSVSTAYLQISSLKAEDTAVYYCARKGVTAARYFDYWGQGTLVTVSS
VL: DIQMTQSPSSLSASVGDRVTITCRASQNVRTAVAWYQQKPGKAPKRLIYLASNRHTGVPSRFSGSGSGTEFTLTISNLQPEDFATYYCLQHWNYPLTFGGGTKLEIK
With B3, the binding result in the assay with human PDL1 [1] is on record as “no binding”.

B4: bivalent anti-MerTK antibody MTK-16.2 (full IgG) (antibody, V domains shown)
VH: B3 VH
VL: DIQMTQSPSSLSASVGDRVTITCRASQNVRTAVAWYQQKPGKAPKRLIYLASNRHTGVPSRFSGSGSGTEFTLTISNLQPEDFATYYCLQHWNYPLTFGGGTKLEIKR
In the case of B4, the binding result in the assay with human PDL1 [4] was “no binding (tested: about 70 nM)”.
